Laboratory results published in paper PMC11000523 (Nature, 2023).
Values belong to the molecule of their own block, whether it stands above or below them.

Legend:
[1] = molecular target: nucleosome core particle carrying a methyllysine analogue of histone H3K9 (H3Kc9me3) (Xenopus laevis); assay: BLI
[2] = molecular target: BAH domain of human TNRC18 (amino acids 2785–2968) (human) (UniProt O15417); assay: ITC
[3] = molecular target: TNRC18 BAH domain, 2785-2968 (UniProt O15417); assay: isothermal titration calorimetry; settings: reference: H3(1–22)K9me3 peptide; sites T11
[4] = molecular target: T1, amino acids 718–792 of TNRC18 (Sin3-interaction motif of TNRC18) (human, UniProt O15417 718-792); assay: ITC
T1 sequence (peptide, looked up): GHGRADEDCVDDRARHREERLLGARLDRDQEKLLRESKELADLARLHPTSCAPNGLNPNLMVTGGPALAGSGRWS

Sequence of BAH domain of human TNRC18 (amino acids 2785–2968) (human) (O15417 2785-2968): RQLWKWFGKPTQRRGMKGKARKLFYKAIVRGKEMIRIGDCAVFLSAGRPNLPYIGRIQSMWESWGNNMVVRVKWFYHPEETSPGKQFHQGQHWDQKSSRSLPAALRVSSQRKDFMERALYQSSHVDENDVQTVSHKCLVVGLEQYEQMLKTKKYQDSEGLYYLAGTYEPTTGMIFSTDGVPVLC

Molecule: H3K9me2 peptide
- Kd [2]: 252 µM

Molecule: histone H3 1-22 (from UniProt P68431) H3(1–22)K9me3 T11ph peptide
- binding against the reference [3]: same

Results, then the molecule that gave them:

- Kd [1]: 18.8 nM
Molecule: BAH domain of human TNRC18 (amino acids 2785–2968) (from UniProt O15417 2785-2968) (domain or fragment)

- Kd [4]: 104 µM
B1: PAH domain of Sin3 (domain or fragment)
chain: QRLKVEDALSYLDQVKLQFGSQPQVYNDFLDIMKEFKSQSIDTPGVISRVSQLFKGHPDLIMGFNTFLPPG
